# Patent publication US20210371518A1 (University of Texas, published 2021)
# Positions count from the first letter of the chain named. Values joined by “and” are separate entries in the source; they are usually repeats but may differ in a detail not shown here. Identical values can stand only once.
# B1: h193 antibody No. 35 (h193-H7 / h193-K1) (antibody, V domains shown)
# VH: EVQLVESGGGLVQPGGSLRLSCAASGFSLSSSYWISWVRQAPGKGLEWIGSIDSGSVGITYYATWVKGRFTISRDNSKNTLYLQMNSLRAEDTAVYYCARHGDNWALDLWGQGTLVTVSS
# VL: DIQMTQSPSTLSASVGDRVTITCQASQSINSWLAWYQQKPGKAPKLLIYKASTLASGVPSRFSGSGSGTEFTLTISSLQPDDFATYYCQHGYIRGDLDNVFGGGTKVEIK
# B2: h193 antibody No. 36 (h193-H7 / h193-K2) (antibody, V domains shown)
# VH: B1 VH
# VL: B1 VL with I2L, Q3V, A43P, P59S, F83V
# B3: h193 antibody No. 37 (h193-H7 / h193-K3) (antibody, V domains shown)
# VH: B1 VH
# VL: B1 VL with Q24R
# B4: B4-86 (antibody, V domains shown)
# VH: EQSVESGGDLVKPEGSLTLTCTVSGFSFSSSYWICWVRQAPGKGLEWIGCIGTGSGSTYYGSWAKGRFTISKTSSTTVTLQMTSLTAADTATYFCVRGAGYSSYRLWGPGTLVTISS
# VL: ELDMTQTPASVSEPVGGTVTIKCQASESVSNWLAWYQQKPGQRPKLLIYGASTLESGVPSRFSGSGSGTEFTLTISNLECADAATYYCQQGYDWDNIDNAFGGGTEVVVK
# notes: Rabbit monoclonal antibody
# B5: B4-49 (antibody, V domains shown)
# VH: QSLEESGGDLVKPGASLTLTCTASGFDFSSSGWICWVRQAPGKGLELIACIYSGRSGSTYYASWAKGRVTISKTSSTTVTLQMTSLTAADTATYFCARALYVDYVDYDYIDLWGPGTLVTVSS
# VL: ELDLTQTPASVEAAVGGTVTIKCQASQSTGIRLAWYQQKPGQPPKLLMYATSNLASGVSSRFKGSGSGTEFTLTISDLECADAATYYCQYSYYGSSYVFDFGGGTEVEIK
# notes: Rabbit monoclonal antibody
# B6: B4-116-1 (antibody, V domains shown)
# VH: EQSVEESGGDLVKPGASLTLTCAASGFSFSSTYCMCWVRQAPGKGLEWIACIHGVSTNNRWYASWPKGRFTISKTSSTTVTLQMTSLTAADTATYFCARSDTDYEWGLSLWGPGTLVTISS
# VL: ELDLTQTPASVSEPVGGTVTIKCQASESIGSRLAWYQQKPGQRPKLLIYKASTLASGVPSRFSGSGSGTEFTLTVSDLECADVAAYYCQCAGQSSTWAFGGGTEVEIK
# notes: Rabbit monoclonal antibody
# B7: B4-116-2 (antibody, V domains shown)
# VH: B6 VH
# VL: B6 VL with D3V, L4M, S12E, E13A, P14V, E106V, I107V
# notes: Rabbit monoclonal antibody
# B8: B4-15-1 (antibody, V domains shown)
# VH: SGGLEESGGRLVTPGTPLTLTCTASGFTINSAHMSWVRQAPGKGLEWIGFSTTGGPSYYANWAKGRFTISRTSTTVDLEITSPTIEDTATYFCARDGPGNNIDMDLWGQGTLVTITS
# VL: ELDLTQTPASVSEPVGGTVTIKCQASQNRGGSIAWYQQKPGQPPKLLIYSASTLASGVPSRFSGSGYGTEFTLTISGVQCADAGTYYCQSTIYSISDIGAFGGGTEVVVK
# notes: Rabbit monoclonal antibody against human LILRB4 ECD
# B9: B4-72-2 (antibody, V domains shown)
# VH: EQSVEESGGRLVTPGTPLTLTCTASGFSLSSYYMSWVRQAPGRGLEYIGVINTGGSAVYATWTKGRFTISRTSTTVDLKMTGLTTEDTATYFCARGWSRGDLWGQGTLVTISS
# VL: ELDMTQTPSPVSAAVGGTVTIKCQSSQNVYDDDTLSWYQQKPGQPPKLLIYDASKLASGVPDRFSGSGSGTQFTLTISGVQCDDAATYYCLGVFHDGINNAFGGGTEVEIK
# notes: Rabbit monoclonal antibody
# B10: B4-87 (antibody, V domains shown)
# VH: QSVKESGGDLVKPGASLTLTCTASGFSFISTYWICWVRQAPGKGLELIACIYTGGSGSTYYASWAKGRFTISKTSSTTVTLQLNSLTAADTATYFCARALYVDYVDYDYIDLWGPGTLVTVSS
# VL: ELDLTQTPASVEAAVGGTVTIKCQASENIGSRLAWYQQKPGQPPKLLIYAASNLASGVSSRFKGSRSGTQFTLTISDLECADAAIYYCQCSYYGSTYVFGFGGGTEVEIK
# notes: Rabbit monoclonal antibody
# B11: h193 (antibody, V domains shown)
# VH: B1 VH
# VL: DLVMTQSPSTLSASVGDRVTITCQASQSINSWLAWYQQKPGKPPKLLIYKASTLASGVSSRFSGSGSGTEFTLTISSLQPDDVATYYCQHGYIRGDLDNVFGGGTKVEIKR
# Target: T1, human LILRB4 extracellular domain (ECD) recombinant protein (human, UniProt Q8NHJ6 22-259)
# T1 construct: extracellular domain; also called LILRB4 ECD; LILRB4-ECD
# Assay: ELISA
row,Binder,EC50
1,B1,0.162 µg/mL and 1.08 nM
2,B2,0.145 µg/mL and 0.96 nM
3,B3,0.163 µg/mL and 1.08 nM

# Target: T1, human LILRB4 extracellular domain (ECD) …
# Assay: Octet
Binder,Kd [nM],koff [s⁻¹],kon [M⁻¹ s⁻¹]
B1,1.05,0.000148,141000
B2,1.01,0.000144,143000
B3,0.984,0.00014,143000

# Target: T1, human LILRB4 extracellular domain (ECD) …
# Assay: ELISA, coated LILRB4 ECD
# Experimental: FIG. 22 illustrates the determination of exemplary LILRB4 monoclonal antibody (mAbs) binding to human LILRB4 ECD using a concentration titration (0-10 μg/ml) by ELISA. X axis indicates the antibody concentrations and Y-axis is binding signals in OD (450 nm). LILRB4 ECD recombinant protein was coated on high absorption 96-well plates. Serial diluted (3-fold) LILRB4 mAb was added to the coated/blocked and detected using goat anti-rabbit IgG F(ab)₂-conjugated HRP as secondary antibody. The titration curves were fitted using 4-parameter fitting curve using the GraphPad software for EC50 estimation.
row,Binder,EC50 [nM]
1,B4,1.02
2,B5,1.01
3,B6,2.58
4,B7,1.7
5,B8,0.99
6,B9,0.29
7,B10,2.54

# Target: LILRB1 (human (not printed on the sheet), UniProt Q8NHL6)
# Sequence (Q8NHL6 24-461 limits assumed): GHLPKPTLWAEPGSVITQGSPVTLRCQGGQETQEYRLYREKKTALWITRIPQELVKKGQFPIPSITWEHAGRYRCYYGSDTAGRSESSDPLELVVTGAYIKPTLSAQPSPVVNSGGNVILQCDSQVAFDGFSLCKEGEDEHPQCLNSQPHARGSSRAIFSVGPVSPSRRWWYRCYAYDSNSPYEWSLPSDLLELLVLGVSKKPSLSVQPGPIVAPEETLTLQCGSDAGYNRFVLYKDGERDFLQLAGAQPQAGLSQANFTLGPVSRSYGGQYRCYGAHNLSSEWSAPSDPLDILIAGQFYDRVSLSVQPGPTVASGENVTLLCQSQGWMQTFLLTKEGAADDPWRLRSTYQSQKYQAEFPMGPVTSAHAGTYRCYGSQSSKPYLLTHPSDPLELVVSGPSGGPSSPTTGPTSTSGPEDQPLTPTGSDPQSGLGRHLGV
# Assay: LILR reporter cells on coated antibody, GFP positive (%)
# Experimental: (§1) FIGS. 41A-41M illustrate specific binding of h193 antibodies to LILRB4 protein. FIGS. 41A-41L illustrate the specificity of h193 antibodies determined by LILR reporter assays, in which LILR reporter cells are added to the plates coated with h193 antibodies. The binding of h193 antibodies to the ECD of the LILR member on the surface of the reporter cells induced GFP signal. FIG. 41M illustrates the specificity of an exemplary h193 antibody determined by ELISA. LILRA and LILRB recombinant proteins were coated on high absorption 96-well plates. Serial diluted (5-fold) mAb h193 were added to the coated/blocked plates and detected using goat anti-human IgG F(ab)2 conjugated HRP as secondary antibody.
row,Binder,binding result
1,B1,no binding
2,B2,no binding
3,B3,no binding

# Target: LILRB2 (human (not printed on the sheet), UniProt Q8N423)
# Sequence (Q8N423 22-460 limits assumed): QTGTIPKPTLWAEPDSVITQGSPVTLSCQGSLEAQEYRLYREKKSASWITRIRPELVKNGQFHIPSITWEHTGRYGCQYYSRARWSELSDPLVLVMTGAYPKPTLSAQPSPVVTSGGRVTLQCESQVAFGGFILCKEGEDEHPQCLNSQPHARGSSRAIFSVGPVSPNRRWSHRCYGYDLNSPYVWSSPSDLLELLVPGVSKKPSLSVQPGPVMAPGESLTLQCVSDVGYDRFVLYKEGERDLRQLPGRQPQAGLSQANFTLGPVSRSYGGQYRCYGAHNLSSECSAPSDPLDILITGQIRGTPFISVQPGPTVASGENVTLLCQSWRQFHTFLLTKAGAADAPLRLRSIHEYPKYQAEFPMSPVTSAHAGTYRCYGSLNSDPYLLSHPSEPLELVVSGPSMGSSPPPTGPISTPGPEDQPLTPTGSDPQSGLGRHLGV
# Assay: as above
# Experimental: as §1
row,Binder,binding result
1,B1,no binding
2,B2,no binding
3,B3,no binding

# Target: LILRB3 (human (not printed on the sheet), UniProt O75022)
# Sequence (O75022 24-443 limits assumed): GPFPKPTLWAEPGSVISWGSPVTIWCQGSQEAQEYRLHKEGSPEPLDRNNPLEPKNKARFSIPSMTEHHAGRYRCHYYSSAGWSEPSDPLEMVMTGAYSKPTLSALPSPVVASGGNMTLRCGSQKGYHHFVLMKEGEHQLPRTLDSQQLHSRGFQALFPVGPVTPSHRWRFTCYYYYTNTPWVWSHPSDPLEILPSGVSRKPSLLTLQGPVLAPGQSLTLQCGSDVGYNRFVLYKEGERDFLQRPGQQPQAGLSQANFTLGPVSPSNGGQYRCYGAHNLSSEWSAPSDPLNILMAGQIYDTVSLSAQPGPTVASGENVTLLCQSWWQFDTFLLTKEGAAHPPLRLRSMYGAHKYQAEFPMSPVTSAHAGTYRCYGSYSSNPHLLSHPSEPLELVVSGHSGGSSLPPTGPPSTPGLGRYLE
# Assay: as above
# Experimental: as §1
row,Binder,binding result
1,B1,no binding
2,B2,no binding
3,B3,no binding

# Target: LILRB5 (human (not printed on the sheet), UniProt O75023)
# Sequence (O75023 24-458 limits assumed): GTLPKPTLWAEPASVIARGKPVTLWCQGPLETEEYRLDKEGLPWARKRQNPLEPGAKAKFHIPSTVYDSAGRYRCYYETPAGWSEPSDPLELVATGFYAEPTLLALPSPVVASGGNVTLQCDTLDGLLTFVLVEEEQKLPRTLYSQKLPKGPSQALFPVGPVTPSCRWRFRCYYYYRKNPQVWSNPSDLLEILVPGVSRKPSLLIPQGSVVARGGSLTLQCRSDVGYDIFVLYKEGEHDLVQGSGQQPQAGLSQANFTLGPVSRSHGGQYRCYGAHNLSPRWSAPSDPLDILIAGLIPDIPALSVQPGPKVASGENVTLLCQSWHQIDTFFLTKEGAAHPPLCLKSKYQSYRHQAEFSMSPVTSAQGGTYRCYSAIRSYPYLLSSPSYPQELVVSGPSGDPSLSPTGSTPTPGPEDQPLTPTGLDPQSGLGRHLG
# Assay: as above
# Experimental: as §1
row,Binder,binding result
1,B1,no binding
2,B2,no binding
3,B3,no binding

# Target: LILRA1 (human (not printed on the sheet), UniProt O75019)
# Sequence (O75019 17-461 limits assumed): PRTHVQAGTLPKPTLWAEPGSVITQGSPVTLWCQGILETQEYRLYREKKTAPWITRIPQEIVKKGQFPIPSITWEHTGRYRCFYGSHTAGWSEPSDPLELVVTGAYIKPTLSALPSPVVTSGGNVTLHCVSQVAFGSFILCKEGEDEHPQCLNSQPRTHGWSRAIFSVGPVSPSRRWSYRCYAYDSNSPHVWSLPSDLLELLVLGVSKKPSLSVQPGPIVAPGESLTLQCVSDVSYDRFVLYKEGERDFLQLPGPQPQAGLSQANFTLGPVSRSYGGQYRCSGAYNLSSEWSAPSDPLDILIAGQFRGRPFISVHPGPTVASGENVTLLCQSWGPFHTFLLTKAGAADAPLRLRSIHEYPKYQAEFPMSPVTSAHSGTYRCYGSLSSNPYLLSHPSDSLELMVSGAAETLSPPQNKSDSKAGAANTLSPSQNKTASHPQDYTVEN
# Assay: as above
# Experimental: as §1
row,Binder,binding result
1,B1,no binding
2,B2,no binding
3,B3,no binding

# Target: LILRA2 (human (not printed on the sheet), UniProt Q8N149)
# Sequence (Q8N149 24-449 limits assumed): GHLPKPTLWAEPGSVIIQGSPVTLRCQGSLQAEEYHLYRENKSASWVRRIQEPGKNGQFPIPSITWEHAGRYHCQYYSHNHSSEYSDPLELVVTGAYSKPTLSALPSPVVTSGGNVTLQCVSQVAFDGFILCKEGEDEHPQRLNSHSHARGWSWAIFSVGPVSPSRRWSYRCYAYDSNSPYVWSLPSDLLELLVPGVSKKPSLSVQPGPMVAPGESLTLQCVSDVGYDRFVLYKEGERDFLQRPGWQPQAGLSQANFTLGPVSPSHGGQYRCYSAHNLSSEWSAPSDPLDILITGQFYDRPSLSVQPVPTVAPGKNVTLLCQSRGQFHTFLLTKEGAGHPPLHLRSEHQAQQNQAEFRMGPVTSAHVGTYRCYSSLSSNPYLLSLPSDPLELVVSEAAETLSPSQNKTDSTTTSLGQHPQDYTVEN
# Assay: as above
# Experimental: as §1
row,Binder,binding result
1,B1,no binding
2,B2,no binding
3,B3,no binding

# Target: LILRA3 (human (not printed on the sheet), UniProt Q8N6C8)
# Sequence (Q8N6C8 24-439 limits assumed): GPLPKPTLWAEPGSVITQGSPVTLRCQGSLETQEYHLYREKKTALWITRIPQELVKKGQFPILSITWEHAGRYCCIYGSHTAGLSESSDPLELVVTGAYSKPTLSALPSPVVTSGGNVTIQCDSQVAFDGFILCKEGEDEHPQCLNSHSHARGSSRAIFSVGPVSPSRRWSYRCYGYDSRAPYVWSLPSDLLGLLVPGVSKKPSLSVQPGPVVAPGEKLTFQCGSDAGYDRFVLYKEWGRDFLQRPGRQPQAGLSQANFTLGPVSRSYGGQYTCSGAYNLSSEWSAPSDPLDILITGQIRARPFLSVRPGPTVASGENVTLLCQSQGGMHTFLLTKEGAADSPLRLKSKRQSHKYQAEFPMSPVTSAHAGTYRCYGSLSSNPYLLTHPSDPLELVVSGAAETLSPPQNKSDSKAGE
# Assay: as above
# Experimental: as §1
row,Binder,binding result
1,B1,no binding
2,B2,no binding
3,B3,no binding

# Target: LILRA4 (human (not printed on the sheet), UniProt P59901)
# Sequence (P59901 24-446 limits assumed): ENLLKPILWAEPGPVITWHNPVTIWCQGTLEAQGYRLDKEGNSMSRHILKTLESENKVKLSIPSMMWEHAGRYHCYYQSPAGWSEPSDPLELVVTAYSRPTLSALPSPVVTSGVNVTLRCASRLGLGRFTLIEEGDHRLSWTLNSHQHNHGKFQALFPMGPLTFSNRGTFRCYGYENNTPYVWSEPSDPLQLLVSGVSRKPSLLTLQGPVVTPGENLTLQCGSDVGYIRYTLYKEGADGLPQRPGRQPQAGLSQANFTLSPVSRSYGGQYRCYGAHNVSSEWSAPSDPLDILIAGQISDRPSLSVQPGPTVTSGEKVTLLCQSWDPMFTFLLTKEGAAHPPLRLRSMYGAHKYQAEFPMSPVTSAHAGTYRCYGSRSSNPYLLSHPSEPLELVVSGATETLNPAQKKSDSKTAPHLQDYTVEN
# Assay: as above
# Experimental: as §1
row,Binder,binding result
1,B1,no binding
2,B2,no binding
3,B3,no binding

# Target: LILRA5 (human (not printed on the sheet), UniProt A6NI73)
# Sequence (A6NI73 42-268 limits assumed): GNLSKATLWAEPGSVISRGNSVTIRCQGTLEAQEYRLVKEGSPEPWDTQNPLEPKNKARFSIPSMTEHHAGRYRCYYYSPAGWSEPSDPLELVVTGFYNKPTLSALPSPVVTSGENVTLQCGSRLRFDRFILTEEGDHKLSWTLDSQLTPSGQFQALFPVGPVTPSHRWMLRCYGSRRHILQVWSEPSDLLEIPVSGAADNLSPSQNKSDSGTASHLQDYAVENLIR
# Assay: as above
# Experimental: as §1
row,Binder,binding result
1,B1,no binding
2,B2,no binding
3,B3,no binding

# Target: LILRA6 (human (not printed on the sheet), UniProt Q6PI73)
# Sequence (Q6PI73 24-447 limits assumed): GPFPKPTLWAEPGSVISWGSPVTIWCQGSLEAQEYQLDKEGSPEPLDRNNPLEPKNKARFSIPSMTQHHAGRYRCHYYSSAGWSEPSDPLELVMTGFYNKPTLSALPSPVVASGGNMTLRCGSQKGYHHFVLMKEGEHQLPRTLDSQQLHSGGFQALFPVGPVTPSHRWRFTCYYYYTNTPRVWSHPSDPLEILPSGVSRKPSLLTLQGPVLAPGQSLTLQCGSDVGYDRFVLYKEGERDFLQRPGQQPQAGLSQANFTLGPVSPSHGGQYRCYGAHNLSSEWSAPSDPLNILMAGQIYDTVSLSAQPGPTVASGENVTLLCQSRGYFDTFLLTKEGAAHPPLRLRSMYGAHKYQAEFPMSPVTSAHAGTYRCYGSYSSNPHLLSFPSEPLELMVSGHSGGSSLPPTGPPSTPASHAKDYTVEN
# Assay: as above
# Experimental: as §1
row,Binder,binding result
1,B1,no binding
2,B2,no binding
3,B3,no binding

# Target: T1, human LILRB4 extracellular domain (ECD) …
# Assay: ELISA, LILRB4 recombinant protein coated, anti-human IgG F(ab)2-HRP
row,Binder,EC50 (read off the curve) [mg/L]
1,B11,~0.03

# Target: T1, human LILRB4 extracellular domain (ECD) …
# Assay: Octet BLI, antibody on protein A sensor, recombinant human LILRB4 in solution
# Experimental: FIG. 26 illustrates the kinetic binding measurements (sensor-grams) for exemplary LILRB4 antibodies determined using Octet. Antibody at 30 μg/mL was loaded to the proteins A sensor for 4 min. Following a short baseline in kinetics buffer, the loaded sensors were exposed to a series of recombinant human LILRB4 concentrations (0.1-200 nM) and background subtraction was used to correct for sensor drifting. All experiments were performed with shaking at 1,000 rpm. Background wavelength shifts were measured from reference sensors that were loaded only with antibody. ForteBio's data analysis software was used to fit the data to a 1:1 binding model to extract an association rate and dissociation rate. The KD was calculated by the ratio koff/kon using ForteBio's data analysis software 7.0.
row,Binder,Kd [nM]
1,B4,0.344
2,B5,0.0233
3,B6,0.82
4,B7,0.495
5,B9,3.73
6,B10,0.238

# Target: T2, human LILRB4 D1 recombinant protein (human, UniProt Q8NHJ6 24-119, limits assumed)
# T2 construct: domain: D1 domain; also called LILRB4 D1 domain (D1); Ig domain-1
# T2 sequence (Q8NHJ6 24-119 limits assumed): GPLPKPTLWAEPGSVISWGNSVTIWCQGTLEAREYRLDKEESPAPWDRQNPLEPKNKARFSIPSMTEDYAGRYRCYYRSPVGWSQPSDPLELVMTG
# Assay: ELISA, LILRB4 D1 recombinant protein coated, anti-rabbit IgG F(ab)2-HRP
# Experimental: FIGS. 23A-23B. FIG. 23A is a schematic of the LILRB4 extracellular domain (ECD). […] FIG. 23B illustrates the determination of exemplary LILRB4 mAbs binding to Ig domain-1 (D1 domain) of human LILRB4. X axis indicates the antibody concentrations and Y-axis is binding signals in OD (450 nm). LILRB4 D1 recombinant protein was coated on high absorption 96-well plates. Serial diluted (3-fold) LILRB4 mAb was added to the coated/blocked plates and detected using goat anti-rabbit IgG F(ab)₂-conjugated HRP as secondary antibody.
row,Binder,EC50 (read off the curve) [mg/L]
1,B10,~0.2
